Where two headings read alike, the source gives them in different places.
Legend:
Assay in all cases: cell-based or functional assay
[1] = molecular target: T1, ATP-binding cassette transporter A1 (ABCA1) (UniProt P41233 1-2261, limits assumed)
[2] = molecular target: T1, ATP-binding cassette transporter A1 …; remark: listed apart in the source
[3] = molecular target: T1, ATP-binding cassette transporter A1 …; remark: listed apart in the source
[4] = molecular target: T1, ATP-binding cassette transporter A1 …; remark: listed apart in the source
[5] = molecular target: T1, ATP-binding cassette transporter A1 …; remark: listed apart in the source
[6] = molecular target: T1, ATP-binding cassette transporter A1 …; remark: listed apart in the source

T1 sequence (P41233 whole entry): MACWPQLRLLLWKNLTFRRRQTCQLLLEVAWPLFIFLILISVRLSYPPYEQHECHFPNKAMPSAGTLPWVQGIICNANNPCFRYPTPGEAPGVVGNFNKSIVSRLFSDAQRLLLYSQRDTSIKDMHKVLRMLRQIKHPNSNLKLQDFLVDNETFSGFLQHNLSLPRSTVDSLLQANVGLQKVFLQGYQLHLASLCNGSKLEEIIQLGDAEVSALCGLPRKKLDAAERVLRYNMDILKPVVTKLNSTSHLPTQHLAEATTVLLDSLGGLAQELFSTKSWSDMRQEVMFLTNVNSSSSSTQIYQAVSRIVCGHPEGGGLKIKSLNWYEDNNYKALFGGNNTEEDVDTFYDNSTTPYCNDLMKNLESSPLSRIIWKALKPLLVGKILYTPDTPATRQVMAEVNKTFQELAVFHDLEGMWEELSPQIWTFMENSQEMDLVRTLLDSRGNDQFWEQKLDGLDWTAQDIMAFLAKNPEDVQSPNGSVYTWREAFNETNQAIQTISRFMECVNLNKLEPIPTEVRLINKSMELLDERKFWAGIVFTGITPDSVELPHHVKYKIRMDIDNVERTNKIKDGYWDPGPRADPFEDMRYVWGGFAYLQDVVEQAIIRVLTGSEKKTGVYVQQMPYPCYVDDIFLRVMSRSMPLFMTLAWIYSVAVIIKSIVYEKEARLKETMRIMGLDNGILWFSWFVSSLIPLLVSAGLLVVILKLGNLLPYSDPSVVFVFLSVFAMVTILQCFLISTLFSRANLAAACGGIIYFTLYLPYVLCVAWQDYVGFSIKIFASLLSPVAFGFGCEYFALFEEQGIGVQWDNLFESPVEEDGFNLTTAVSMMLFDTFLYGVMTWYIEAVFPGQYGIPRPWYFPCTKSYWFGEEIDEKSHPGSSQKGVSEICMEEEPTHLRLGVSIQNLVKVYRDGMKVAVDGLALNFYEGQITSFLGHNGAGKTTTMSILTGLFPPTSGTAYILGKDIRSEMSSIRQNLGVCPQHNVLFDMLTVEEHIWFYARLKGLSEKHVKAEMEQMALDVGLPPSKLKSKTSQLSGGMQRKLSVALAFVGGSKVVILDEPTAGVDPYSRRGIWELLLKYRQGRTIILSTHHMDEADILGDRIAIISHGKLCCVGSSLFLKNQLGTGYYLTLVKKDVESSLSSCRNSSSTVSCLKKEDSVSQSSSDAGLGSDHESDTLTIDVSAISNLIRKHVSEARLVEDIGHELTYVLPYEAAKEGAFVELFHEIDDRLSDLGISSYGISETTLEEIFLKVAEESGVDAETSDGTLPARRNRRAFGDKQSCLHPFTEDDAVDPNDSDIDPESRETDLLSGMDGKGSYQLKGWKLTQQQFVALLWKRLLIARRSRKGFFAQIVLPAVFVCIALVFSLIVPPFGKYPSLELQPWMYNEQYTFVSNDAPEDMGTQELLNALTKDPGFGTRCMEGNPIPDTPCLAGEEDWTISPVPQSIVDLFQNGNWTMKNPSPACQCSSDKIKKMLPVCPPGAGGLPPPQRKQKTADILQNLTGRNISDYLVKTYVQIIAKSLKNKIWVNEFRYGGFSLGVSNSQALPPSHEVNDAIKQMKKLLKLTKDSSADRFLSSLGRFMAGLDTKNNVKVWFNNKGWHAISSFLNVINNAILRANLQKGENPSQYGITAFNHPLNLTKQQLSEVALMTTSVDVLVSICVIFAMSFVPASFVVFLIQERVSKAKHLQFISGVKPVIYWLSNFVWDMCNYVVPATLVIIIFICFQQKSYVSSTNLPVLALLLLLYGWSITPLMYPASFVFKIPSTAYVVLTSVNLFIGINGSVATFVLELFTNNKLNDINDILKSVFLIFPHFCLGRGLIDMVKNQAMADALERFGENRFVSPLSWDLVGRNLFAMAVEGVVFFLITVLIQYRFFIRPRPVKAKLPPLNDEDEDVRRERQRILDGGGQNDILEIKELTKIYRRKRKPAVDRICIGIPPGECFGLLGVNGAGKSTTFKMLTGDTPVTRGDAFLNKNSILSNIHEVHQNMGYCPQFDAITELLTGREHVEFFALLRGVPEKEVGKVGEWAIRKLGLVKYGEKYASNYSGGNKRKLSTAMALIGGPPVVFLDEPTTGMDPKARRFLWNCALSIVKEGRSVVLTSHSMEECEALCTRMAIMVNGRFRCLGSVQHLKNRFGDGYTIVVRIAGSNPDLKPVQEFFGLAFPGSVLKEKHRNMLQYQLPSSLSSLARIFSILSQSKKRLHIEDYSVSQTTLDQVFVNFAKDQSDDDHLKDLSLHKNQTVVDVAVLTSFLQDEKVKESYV

Molecule	Km of cholesterol efflux stimulation, mass basis (4 h efflux data, cAMP-treated J774 cells) [1] [µg/mL]	Km of cholesterol efflux stimulation, molar basis [1]	% cholesterol efflux/8 hours, +cAMP [2] [%]	% cholesterol efflux/8 hours, -cAMP [2] [%]	% cholesterol efflux/4 hours at 0.1 µg/ml [3] [%]	% cholesterol efflux/4 hours at 0.3 µg/ml [3] [%]	% cholesterol efflux/4 hours at 1.0 µg/ml [3] [%]	% cholesterol efflux/4 hours at 3.0 µg/ml [3] [%]	% cholesterol efflux/4 hours at 10 µg/ml [3] [%]	% cholesterol efflux/4 hours at 30 µg/ml [3] [%]	efficiency of cholesterol efflux against apoA-I, mass basis [4] [fold]	% cholesterol efflux/4 hours at 0.1 µg/ml [5] [%]	% cholesterol efflux/4 hours at 0.3 µg/ml [5] [%]	% cholesterol efflux/4 hours at 1.0 µg/ml [5] [%]	% cholesterol efflux/4 hours at 3.0 µg/ml [5] [%]	% cholesterol efflux/4 hours at 10 µg/ml [5] [%]	% cholesterol efflux/4 hours at 30 µg/ml [5] [%]	% cholesterol efflux/8 hours, No cAMP [6] [%]	% cholesterol efflux/8 hours, Plus cAMP [6] [%]
lipid-free apolipoprotein(apo)A-I (from UniProt P02647 19-267) (ligand)	3.4	0.12																	
ELREKLEAWFELFREFLERF [SEQ ID NO:2 peptide]			5.26	2.29	0.15	0.52	1.72	4.6	3.62	3.66	~5								
ELRERLEAWFELFREFLERF [N1154-1]												0.1	0.41	2.06	5.11	4.44	3.67	1.85	5.2
ELRDKLEAWFDLFREFLERF [N1154-2]												0.03	0.51	2.17	2.59	2.14	1.66	1.47	3
DLRDKLDAWFDLFRDFLDRF [N1154-3]												0	0.19	1.31	2.66	2.12	2.21	1.61	3.29
ELRDRLEAWFDLFREFLERF [N1154-4]												0	1.3	3.51	4.14	5.02	3.65	2.59	11.4
DLRDRLDAWFDLFRDFLDRF [N1154-5]												0	1.92	2.77	5.28	5.29	3.53	3.06	9.88
